As usually defined, the Kd is a measure of binding affinity in units of concentration.

The values that follow come from PMC9538160.

The target of the assay is Human recombinant p65 protein (SinoBiological 12054-H09E) (human) (UniProt Q04206). The experiment in a line: BLI; Forte-Bio Octet Red; anti-p65 Ab (5 μg/mL) captured on Protein A biosensors, 25 μg/mL recombinant p65 bound to it, ICP22 in solution at 62.5, 125, 250, 500 or 1000 nM; PBS.
Chain of UniProt Q04206 (Q04206 whole entry, stated change not applied): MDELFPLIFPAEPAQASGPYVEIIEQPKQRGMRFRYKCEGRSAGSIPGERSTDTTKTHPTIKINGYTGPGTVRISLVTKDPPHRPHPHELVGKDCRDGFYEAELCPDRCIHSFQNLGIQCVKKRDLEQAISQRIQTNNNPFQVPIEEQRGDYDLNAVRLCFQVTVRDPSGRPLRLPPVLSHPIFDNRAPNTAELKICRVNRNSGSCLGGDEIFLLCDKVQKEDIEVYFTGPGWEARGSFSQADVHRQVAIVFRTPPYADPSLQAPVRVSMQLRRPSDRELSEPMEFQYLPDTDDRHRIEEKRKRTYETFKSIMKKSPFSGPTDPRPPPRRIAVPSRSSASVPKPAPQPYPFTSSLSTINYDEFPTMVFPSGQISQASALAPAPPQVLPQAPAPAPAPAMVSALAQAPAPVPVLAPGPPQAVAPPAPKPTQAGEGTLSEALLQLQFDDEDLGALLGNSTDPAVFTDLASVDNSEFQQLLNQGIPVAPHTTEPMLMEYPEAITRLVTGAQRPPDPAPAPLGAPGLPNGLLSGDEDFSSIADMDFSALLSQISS

As to “HA-tagged HSV-2 ICP22, purified (from UniProt P14379 1-197) (natural protein)”, the Kd came to 218 nM.
